Results reported in publication PMC9474812, “Structure of the membrane-bound formate hydrogenlyase complex from Escherichia coli” (Nature Communications, 2022).

B1: HycB (natural protein, Escherichia coli, UniProt P0AAK1 1-203, looked up)
chain: MNRFVIADSTLCIGCHTCEAACSETHRQHGLQSMPRLRVMLNEKESAPQLCHHCEDAPCAVVCPVNAITRVDGAVQLNESLCVSCKLCGIACPFGAIEFSGSRPLDIPANANTPKAPPAPPAPARVSTLLDWVPGIRAIAVKCDLCSFDEQGPACVRMCPTKALHLVDNTDIARVSKRKRELTFNTDFGDLTLFQQAQSGEAK
notes: HycB, ferredoxin-like subunit of the E. coli formate hydrogenlyase (FHL) complex; coordinates [4Fe4S] clusters B1-B4; Native subunit from the hycABCDEFGHI operon, not tagged; also called ferredoxin-like protein HycB; source: endogenous, E. coli strain MG059e1, anaerobic fermentation; co-purified with His10-HycE from LMNG-solubilised membranes (HisTrap, SEC)
B2: HycE, the large hydrogenase subunit of FHL, with an internal 10x His affinity tag (enzyme, Escherichia coli, UniProt P16431 1-537, looked up)
chain: MSEEKLGQHYLAALNEAFPGVVLDHAWQTKDQLTVTVKVNYLPEVVEFLYYKQGGWLSVLFGNDERKLNGHYAVYYVLSMEKGTKCWITVRVEVDANKPEYPSVTPRVPAAVWGEREVRDMYGLIPVGLPDERRLVLPDDWPDELYPLRKDSMDYRQRPAPTTDAETYEFINELGDKKNNVVPIGPLHVTSDEPGHFRLFVDGENIIDADYRLFYVHRGMEKLAETRMGYNEVTFLSDRVCGICGFAHSTAYTTSVENAMGIQVPERAQMIRAILLEVERLHSHLLNLGLACHFTGFDSGFMQFFRVRETSMKMAEILTGARKTYGLNLIGGIRRDLLKDDMIQTRQLAQQMRREVQELVDVLLSTPNMEQRTVGIGRLDPEIARDFSNVGPMVRASGHARDTRADHPFVGYGLLPMEVHSEQGCDVISRLKVRINEVYTALNMIDYGLDNLPGGPLMVEGFTYIPHRFALGFAEAPRGDDIHWSMTGDNQKLYRWRCRAATYANWPTLRYMLRGNTVSDAPLIIGSLDPCYSCTDR
notes: HycE, large [NiFe] hydrogenase subunit of the E. coli formate hydrogenlyase (FHL) complex; His10 tag placed after Gly-83; also called [NiFe] hydrogenase HycE; Hyd-3 large subunit; source: purified from LMNG-solubilised membranes (HisTrap, SEC); not shown: His10, internal (after residue 83), kept

What was measured:
[1] = biological target: T1, formate dehydrogenase H (FdhF) (Escherichia coli, UniProt P07658 1-715, metal-coordinating selenocysteine (Sec); position not given); assay: cryo-EM structure; aerobically isolated FHL (heptameric FdhF-HycBCDEFG) in LMNG, single-particle analysis, 3.4 Å (focused refinements 3.0-3.4 Å); conditions: both partners purified
T1 construct: Formate dehydrogenase H, FdhF, subunit of the E. coli formate hydrogenlyase (FHL) complex; carries Mo(MGD)2 and [4Fe4S] cluster A1; Native subunit, not tagged; also called formate dehydrogenase subunit FdhF; source: endogenous, E. coli strain MG059e1, anaerobic fermentation; co-purified with His10-HycE from LMNG-solubilised membranes (HisTrap, SEC)
T1 sequence (looked up): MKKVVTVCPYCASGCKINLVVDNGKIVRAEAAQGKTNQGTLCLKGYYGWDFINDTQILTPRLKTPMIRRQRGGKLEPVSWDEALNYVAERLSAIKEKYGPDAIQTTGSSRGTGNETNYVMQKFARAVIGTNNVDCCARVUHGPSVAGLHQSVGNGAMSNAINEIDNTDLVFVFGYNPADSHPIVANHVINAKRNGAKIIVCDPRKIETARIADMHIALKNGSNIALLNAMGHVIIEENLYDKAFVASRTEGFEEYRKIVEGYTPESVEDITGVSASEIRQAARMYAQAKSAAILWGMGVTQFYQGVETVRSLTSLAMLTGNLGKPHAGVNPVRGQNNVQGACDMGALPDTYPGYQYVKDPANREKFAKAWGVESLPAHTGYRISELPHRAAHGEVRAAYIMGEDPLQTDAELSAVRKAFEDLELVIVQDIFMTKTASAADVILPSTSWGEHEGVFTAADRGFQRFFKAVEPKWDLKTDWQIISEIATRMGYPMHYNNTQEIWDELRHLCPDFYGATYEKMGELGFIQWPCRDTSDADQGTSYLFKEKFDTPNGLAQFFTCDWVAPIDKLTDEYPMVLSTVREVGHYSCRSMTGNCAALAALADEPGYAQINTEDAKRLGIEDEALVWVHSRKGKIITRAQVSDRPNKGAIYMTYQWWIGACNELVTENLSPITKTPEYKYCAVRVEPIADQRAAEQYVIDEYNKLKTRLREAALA

[2] = biological target: B2; assay: co-purification (His-tag affinity, then SEC); anaerobic isolation: as the aerobic one but in an anaerobic chamber (<1 ppm O2, 3-4% hydrogen in nitrogen), anaerobic buffers, lysis by sonication (also bead-beating or B-PER); conditions: partners not purified
[3] = biological target: T2, HycC (Escherichia coli, UniProt P16429 1-608); assay: co-purification (His-tag affinity, then SEC); aerobic isolation: membranes solubilised with 0.5% LMNG, HisTrap FF by the His10 tag in HycE, Superdex 200 Increase; 20 mM Tris, 200 mM NaCl, 1 mM DTT, 0.005% LMNG, pH 7.5; conditions: partners not purified
T2 construct: Native subunit from the hycABCDEFGHI operon, not tagged; also called antiporter-like subunit HycC; source: endogenous, E. coli strain MG059e1, anaerobic fermentation; co-purified with His10-HycE from LMNG-solubilised membranes (HisTrap, SEC)
T2 sequence (looked up): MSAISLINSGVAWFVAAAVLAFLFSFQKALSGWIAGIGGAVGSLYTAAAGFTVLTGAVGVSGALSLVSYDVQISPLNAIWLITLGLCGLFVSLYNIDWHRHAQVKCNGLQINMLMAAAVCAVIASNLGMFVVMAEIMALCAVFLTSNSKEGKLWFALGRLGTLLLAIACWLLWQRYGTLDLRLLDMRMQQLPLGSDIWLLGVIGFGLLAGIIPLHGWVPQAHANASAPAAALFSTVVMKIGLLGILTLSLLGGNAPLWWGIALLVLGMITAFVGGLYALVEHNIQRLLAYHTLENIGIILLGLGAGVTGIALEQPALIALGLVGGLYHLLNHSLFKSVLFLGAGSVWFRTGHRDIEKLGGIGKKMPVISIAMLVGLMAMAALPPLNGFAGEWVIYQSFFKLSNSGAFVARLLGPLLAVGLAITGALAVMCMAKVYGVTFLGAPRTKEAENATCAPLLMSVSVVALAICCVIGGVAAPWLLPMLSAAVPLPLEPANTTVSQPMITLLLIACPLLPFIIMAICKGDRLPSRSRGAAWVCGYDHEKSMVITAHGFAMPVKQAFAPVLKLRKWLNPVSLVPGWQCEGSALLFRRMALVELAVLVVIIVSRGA

[4] = biological target: T2, HycC; assay: cryo-EM structure; anaerobically isolated FHL (hexameric HycBCDEFG) in LMNG, grids prepared in the anaerobic chamber with fluorinated fos-choline-8, 2.6 Å; conditions: both partners purified
[5] = biological target: B2; assay: co-purification (His-tag affinity, then SEC); aerobic isolation: membranes solubilised with 0.5% LMNG, HisTrap FF by the His10 tag in HycE, Superdex 200 Increase; 20 mM Tris, 200 mM NaCl, 1 mM DTT, 0.005% LMNG, pH 7.5; conditions: partners not purified
[6] = biological target: B1; assay: cryo-EM structure; anaerobically isolated FHL (hexameric HycBCDEFG) in LMNG, grids prepared in the anaerobic chamber with fluorinated fos-choline-8, 2.6 Å; conditions: both partners purified

## B1
[1]
  binding result: binds
[2]
  binding result: binds

## B2
[3]
  binding result: binds

B3: HycD (natural protein, Escherichia coli, UniProt P16430 1-307, looked up)
chain: MSVLYPLIQALVLFAVAPLLSGITRVARARLHNRRGPGVLQEYRDIIKLLGRQSVGPDASGWVFRLTPYVMVGVMLTIATALPVVTVGSPLPQLGDLITLLYLFAIARFFFAISGLDTGSPFTAIGASREAMLGVLVEPMLLLGLWVAAQVAGSTNISNITDTVYHWPLSQSIPLVLALCACAFATFIEMGKLPFDLAEAEQELQEGPLSEYSGSGFGVMKWGISLKQLVVLQMFVGVFIPWGQMETFTAGGLLLALVIAIVKLVVGVLVIALFENSMARLRLDITPRITWAGFGFAFLAFVSLLAA
notes: HycD, integral membrane subunit (ND1 homolog) of the E. coli formate hydrogenlyase (FHL) complex, eight TMHs; Native subunit from the hycABCDEFGHI operon, not tagged; also called membrane-anchor subunit HycD (ND1 homolog); source: endogenous, E. coli strain MG059e1, anaerobic fermentation; co-purified with His10-HycE from LMNG-solubilised membranes (HisTrap, SEC)
[4]
  binding result: binds
[5]
  binding result: binds

B4: HycF (natural protein, Escherichia coli, UniProt P16432 1-180, looked up)
chain: MFTFIKKVIKTGTATSSYPLEPIAVDKNFRGKPEQNPQQCIGCAACVNACPSNALTVETDLATGELAWEFNLGHCIFCGRCEEVCPTAAIKLSQEYELAVWKKEDFLQQSRFALCNCRVCNRPFAVQKEIDYAIALLKHNGDSRAENHRESFETCPECKRQKCLVPSDRIELTRHMKEAI
notes: HycF, ferredoxin-like subunit (NDUFS8 homolog) of the E. coli formate hydrogenlyase (FHL) complex; coordinates [4Fe4S] clusters F1, F2 and a metal ion at Cys117, Cys120, Cys155, Cys158; Native subunit from the hycABCDEFGHI operon, not tagged; also called ferredoxin-like protein HycF; source: endogenous, E. coli strain MG059e1, anaerobic fermentation; co-purified with His10-HycE from …
[1]
  binding result: binds
[6]
  binding result: binds
